Reference: a protein production outcome set (Wang et al. 2014)

assay: label from the status in PepcDB records

Sequence | protein production
MDYSIADCLAANQYTTACCIVQSWTRGEVLLSSYQRVALFIFFDSIEKDLVTHIRSLAGLVTTGFLSAQERDKAAQRAEKSDEPGTVAKDDFELLYQLDLGDKIAIAQRLKQHFGDAFRKHFSAKAASLQAAVPVRNSVMHGRPLTVEEHATAFALANDLVKSNGFWPVLHKALVDYNTDPEAITRRAVSFLEHPSEGGIFHNLPLPDYDDTGFVPRPQLEQELKKKILSRHPVVTVLGDGGNGKTALTVQALYSLVNSGDHDFDAIVWVSAKSSKLTVGEIQRIEHAITTSMGLFEEVVGIFEEDKSNPMSRVRQLLENNKILLAIDNLETVLDDTIRDFVSDIPGQSKVVLTSRIPVGGDLTVEVKPLTDNEGEIYLRALIKSYSIKTLSSLRQDELRYFASRLERRPLLLKWFCMGVIAGLPASKIVSNPEMALRFCLENVFDALSPDATMTLSLMSILPRAVSLGVLHYVSSTDIRKLEAGVAELLKFSILETENQSGYELNYRIKPFARAYVARILRLTAEAQEAVIRKFRGLSFAYQAERGAEGQEKYNFRNFTVRSISEALAAGKLREAVKLAYNDEFEAANAIIDTLKVSNHDYFEVFRTDAFIRFRQHDFAGATDAYRSALELSPETPQLYFFFGGFLLRGYGDCPAAIAQFEEALKRDPESTDVKRELARAKMFDYDFEGAMKILSLERTKPLSNMRTQLIFADLQTQNFQRMITHKSAVGIDADLEAPCSAFADFLVTLDPRIVDSKMTEHLRKARSSIVQALHTRSVRAGARVVALLDKLIGELEASRDDTTDHCASASGLLGTLKEKGRKPNFGFLVDRSNREYFVARAMVSDLVWEGLEGGKIASFEVELDNQGRPRATNVYLI | failed
MDYVVSYLSIEFGLCFILFFVLYWGLGFSLRLQNVLLLVASYAILASFSLNFLYILLGYTALVYLLGLLSQRYPGRGWVNGLMLLLVLGAFYLFKYQDFFTSTVQNAFAQFGVEVSLPLLEVLLPVGLSFYAFHSVSYLVSINRRELTPGSPFDLALYLAFFPSLIAGPVNRAIPMLAQINPPQLRQVLEPQRALGLIAVAVVKLFFLSSWLANEWVDPVFDSPVAYSAEQILRAVYGYSFLIYFNFSGYTDLVTGIALLLGFRLPQNFNYPYAARNLKEFWGRWHISLSTFIRDYVYIPLGGNRGPVWRGNLNMLLAMLISGLWHGASANFIIWGALHGIGLALYKLCSPLLARGPSWIGADLMARLLTFHYVAFAWIFFRCATLSDAMDMLKGLGELSLGGLLGGGASLLGCLLFVAFYPRIVALLRRLFDAATGLPWLFYPVPLGLFICVVIFASPSGVPGFIYASF | failed
MEAETKTLPLENASILSEGSLQEGHRLWIGNLDPKITEYHLLKLLQKFGKVKQFDFLFHKSGALEGQPRGYCFVNFETKQEAEQAIQCLNGKLALSKKLVVRWAHAQVKRYDHNKNDKILPISLEPSSSTEPTQSNLSVTAKIKAIEAKLKMMAENPDAEYPAAPVYSYFKPPDKKRTTPYSRTAWKSRR | failed
MEAIDQLVGQWQKDGLSPSQVAEKFSKCVLYVTCEPCIMCASALSFLGIKEVYYGCPNDKFGGCGSILSLHLGSEEAQRGKGYKCRGGIMAEEAVSLFKCFYEQGNPNAPKPHRPVVQRERT | failed
MEAIRVFGPKLGSRLSIRSHTTAFPACKLSRFPLTSFPGKHAHLVLLKATTIPLASGDKENNRKFEKLGPSEWGNQFLFAHVDLSEMDALEREIEALKPKVRDMFMSFKGMKSNKKNLFLIYLLVSLGLAHHFEDEIEESVKGCSQEMVEMMDGENDLYTVSIIFWVFRTYGHNISSDIFNRFKGHNGKFKECLATDAKGILSLYEAAHMGTTTDYILDEALSFTLSYLESLAANGTCKPNLVRRIRNALGLLQNKNVEILVAKEYIRFYEQEEDCDKTILEFSMLNLKFLQLHYLQELKLLTKWYKEQDFESKLPPYYRDRIVELHLATLAYINPKYSRVRIILTMIYTIQIILDDTCDRYASLREVESLAATIERWDHNDHAMEGLPDYLKSVAKFIFHTFQEFEREVSSESGGSYSLKATIEDCKRMMRSNLQLAKWAVTGHLPSFDEYLDVAGVEIAVYFTVAGILLGMENINKKEAYEWLIFRDKLVRAMSTKARLVNDLFGYKDDMRRGYVTNSINCYKKQYGVTEEEAFRKLHQMVADGDKMMNEEFLKPINVPHQVLKAVLDTLRAINICYDNEDGFTRLNGNLKNYITSMYVDL | failed
MEAKLSSIEIPVGQDELSGTLLTPTGMPGVLFVHGWGGSQHHSLVRAREAVGLGCICMTFDLRGHEGYASMRQSVTRAQNLDDIKAAYDQLASLPYVDAHSIAVVGLSYGGYLSALLTRERPVEWLALRSPALYKDAHWDQPKVSLNADPDLMDYRRRALAPGDNLALAACAQYKGDVLLVEAENDVIVPHPVMRNYADAFTNARSLTSRVIAGADHALSVKEHQQEYTRALIDWLTEMVVGRRIALAKEVVAARKQLLKEQQGDAVSLPGQGSREFRGDIRAVEKTSA | not failed
MEAVLNELVSVEDLKNFERKFQSEQAAGSVSKSTQFEYAWCLVRSKYNEDIRRGIVLLEELLPKGSKEEQRDYVFYLAVGNYRLKEYEKALKYVRGLLQTEPQNNQAKELERLIDKAMKK | not failed
MEDAAAPGRTEGVLERQGAPPAAGQGGALVELTPTPGGLALVSPYHTHRAGDPLDLVALAEQVQKADEFIRANATNKLTVIAEQIQHLQEQARKVLEDAHRDANLHHVACNIVKKPGNIYYLYKRESGQQYFSIISPKEWGTSCPHDFLGAYKLQHDLSWTPYEDIEKQDAKISMMDMLLSQSVALPPCTEPNFQGLTH | failed
MEDETLGFFKKTSSSHARLNVPALVQVAALAIIMIRGLDVLMIFNTLGVRGIGEFIHRSVQTWSLTLVFLSSLVLVFIEIWCAFSLVKGRRWARWLYLLTQITAASYLWAASLGYGYPELFSIPGESKREIFHSLMLQKLPDMLILMLLFVPSTSRRFFQLQ | failed
MEDGKQAINEGSNDASPDLDVNGTILMNNEDFSQWSVDDVITWCISTLEVEETDPLCQRLRENDIVGDLLPELCLQDCQDLCDGDLNKAIKFKILINKMRDSKLEWKDDKTQEDMITVLKNLYTTTSAKLQEFQSQYTRLRMDVLDVMKTSSSSSPINTHGVSTTVPSSNNTIIPSSDGVSLSQTDYFDTVHNRQSPSRRESPVTVFRQPSLSHSKSLHKDSKNKVPQISTNQSHPSAVSTANTPGPSPNEALKQLRASKEDSCERILKNAMKRHNLADQDWRQYVLVICYGDQERLLELNEKPVIIFKNLKQQGLHPAIMLRRRGDFEEVAMMNGSDNVTPGGRL | failed
MEDIVHKYKVSVIICFFNSAETLDAMIKDAVNQTLKDKEIILIDDGSYDGSLEIAEKYANKYSFIKIFSQKNMGLSASRDKGLSEAQGEYVIYWDGDDSVESTMLEVLYNRAKADNSDIVCSQFYIYFLAINVKRKSLLPFPNYPLTGKEAFKNLLFTVYATFGRKNFVVGTLWDKLIRRELILKNNIRQQNVVFEDIVFVMQIFLKASKVSFVNNYFYTNFQRMGSMSSSISVLHKSKLSLNTMETLLKREGIFNECQNLYKKFFLQFYYFISFKQIYIISWNISDKLVYRAYKEKLISVLDEIKGLSEFQDCYEYAKSFGFNEIQILPRIMLKIWNFSSRLYVNFSIFIYKFFIKN | failed
MEDIYKLIDDINLQKIENLDSRVNEALSSNNDDALFILGETLYNFGLTPQGLEVFRTLYHKYPDESELLIYFIEGLMSENQTDEALEYLAQVEPSTEKLMLEADLYQQINMLEVAIDKLQEALDLEPNDPIIHFALAELLYYDGQYLRATREYETVLETGEYEVNGVNIFSRMADCSLQSGNYSDAISLFDEINEEEMNSEDYFKKSIAYEKNDLTQEAIKIMQTLLSKDPDFIQGYFYLQSLFENEKNYPDAIETGKEGLRLSQFYKELMVSTGSLEIEHGDANEGVELLKQALEVDNAYHEPLLILSDLYRNEEDYESIIQLLTYVDEEDLDPIFMWHLAYAYGQEERDKEAQHFFELAYPTLQTQVEFLSDYYFYLLEIGQKEKAILILNQLLEIDPSNENWHDESMRLQI | failed
MEDLKGSHGLGLKIQLSRVCEVKPEVKPLPAGETPSCGFARLDRRCLCGHRATLIPLGLPIAPRPPPSRCPFLKPSLPYVPGPEYGKQRPSCPVPIMSEVTKELLELVWGTKSSPGLSDTIFCRWTQGFVFSDSEGSALEQFEGGPCAVIAPVQAFLLKKLLFSSEKSSWRDCSEDEQKELLCHTLCDILESACDSSGSYCMVSWLRGRTTEDAARISGSPAQSSCQVGHSSALAVEELGFERFHALIQKRSFRTVSELKDAVLDQYSMWGNKFGVLLFLYSVLLTKGIENIKNSIEDANEPLIDPVYGHGSQSLINLLLTGHAVSNVWDGDRECSGMQLLGIHEQATVGFLTLMEALRYCKVGSYLKSPKFPIWIVGSETHLTVFFAKDMALVAPEAPSEQARRVFQTYDPEDNGFIADTLLEDVMKALDLVSDPEYINLMKNKLDPEGLGIILLGPFLQEFFPDQGSSGPESFTVYHYNGLKQSNYNEKVMYVEGTAVVMGFEDPMLQTDDTPIKRCLQTKWPYIELLWTTDRSPSLN | failed
MEDPLGRLEWIKFLSAFYDKEDKAENYFNQQVSKVMATENKVSSLKKPKVAFGMVDNGKVYIPAKNSYAAKMVDMAGGDYIFKDLNNKSGYITLEDFYSKSKDADVLIYSSSKEYTPSLKSMLSAAPILKTIKPVKNKKVWCFGKDYYQAIDKTDEIIEDLASIFHPESFKGYKIKHYSHLEHHHHHH | not failed
MEDRIPVIKRFTGGGTVIVDKSTLFVSLICNKDDVPNVQPYPRSVMAWSGSLYDEVFKSVNGFQLRENDYVFGDRKFGGNAQSIIKNRWIHHTSFLWDYDVRNMAYLKLPSRVPQYRLERDHTDFVCRMKDYIERSDFVEKTVKAVRNQFTLKQVNLEDIDSYAKGGYLKTTRLLTMEELEEAMADTIQNT | failed
MEDSTATATSSSSTHYFSIFTNYPLISAVTSFTIAQFIKLFTSWYRERRWDLKQLIGSGGMPSSHSATVTALAVAIGLQEGFGGSHFAIALILASVVMYDATGVRLHAGRQAEVLNQIVYELPAEHPLAESRPLRELLGHTPPQVCRHMT | failed
MEEAKGPVKHVLLASFKDGVSPEKIEELIKGYANLVNLIEPMKAFHWGKDVSIENLHQGYTHIFESTFESKEAVAEYIAHPAHVEFATIFLGSLDKVLVIDYKPTSVSL | not failed
MEEAPQVGDRLHCYWNLVSKDREKVFEAVVTDVETVSFRELRENDELAREDGFRDAKQLEEEFQRMYQGELTDDTEFQVIRFRKLPVDEWEGKRIDEKAMITRRADILFDSGKFSKSELCYTAALRIDPNDVYILNRLGDNLTRLGRFDEALENYRRAIMIEPENPYIWNNMAITLLNAGRVDEALEASERALKIKHDPDLLYWRGVMLEVAGKPLEALESYERSLEIDPRNAEVWTARGNLLSDLGRMEEAIESYNSALELALEDEQDPNVWNRKGNALLELERFNEALECYRRAIEMEPENDVYWTNMGVALLELERFDEALEAFNRALMINPKNEDAGILREECLENL | failed
MEEFAVVIIGAGPAGGQCARQLAQQGVRVLLVEQHSNFSQNNYSSAASPLETMALFDLPPGVVARYWRNLAIAATEKEQIWYSDQPRGVVFDFAKLRQFLADTVTKAGGQVWLGHRFWGYQQVGDGLEVTLRRSSKNSLSSDSVEKVEKVTVKTQVLIDATGSKRAVINCGQPKATDNNQYYRGIGTEYLITVDETTHQRFADTLVFFLGYRWSPQGYSWIFPMDNHQLKVGTAIFAGQHRYLGELKPLRSYTEAIIRDYLKLEKSQYHLEEIHGSVLDYAVNQGDTYHRGSVLAIGDAVSTVNFLGGEGIRHGMQGANIAVPFVADYLRGHVQAFEKYEQAMKAHFAEPWQRTEKLSQRVYLEFGDRQIDLGVTYLSYLRYDDVLDLLFHYRFDRIYGGITPLLLKKVAQFSQQCRQWLRKLSPLEHHHHHH | failed
